Experimental findings from IntAct's records for PubMed 25574826 are described below.

First the molecules themselves.
B1: Lon protease homolog, mitochondrial (Homo sapiens), P36776-1 (parent)
chain: MAASTGYVRLWGAARCWVLRRPMLAAAGGRVPTAAGAWLLRGQRTCDASPPWALWGRGPAIGGQWRGFWEASSRGGGAFSGGEDASEGGAEEGAGGAGGSAGAGEGPVITALTPMTIPDVFPHLPLIAITRNPVFPRFIKIIEVKNKKLVELLRRKVRLAQPYVGVFLKRDDSNESDVVESLDEIYHTGTFAQIHEMQDLGDKLRMIVMGHRRVHISRQLEVEPEEPEAENKHKPRRKSKRGKKEAEDELSARHPAELAMEPTPELPAEVLMVEVENVVHEDFQVTEEVKALTAEIVKTIRDIIALNPLYRESVLQMMQAGQRVVDNPIYLSDMGAALTGAESHELQDVLEETNIPKRLYKALSLLKKEFELSKLQQRLGREVEEKIKQTHRKYLLQEQLKIIKKELGLEKDDKDAIEEKFRERLKELVVPKHVMDVVDEELSKLGLLDNHSSEFNVTRNYLDWLTSIPWGKYSNENLDLARAQAVLEEDHYGMEDVKKRILEFIAVSQLRGSTQGKILCFYGPPGVGKTSIARSIARALNREYFRFSVGGMTDVAEIKGHRRTYVGAMPGKIIQCLKKTKTENPLILIDEVDKIGRGYQGDPSSALLELLDPEQNANFLDHYLDVPVDLSKVLFICTANVTDTIPEPLRDRMEMINVSGYVAQEKLAIAERYLVPQARALCGLDESKAKLSSDVLTLLIKQYCRESGVRNLQKQVEKVLRKSAYKIVSGEAESVEVTPENLQDFVGKPVFTVERMYDVTPPGVVMGLAWTAMGGSTLFVETSLRRPQDKDAKGDKDGSLEVTGQLGEVMKESARIAYTFARAFLMQHAPANDYLVTSHIHLHVPEGATPKDGPSAGCTIVTALLSLAMGRPVRQNLAMTGEVSLTGKILPVGGIKEKTIAAKRAGVTCIVLPAENKKDFYDLAAFITEGLEVHFVEHYREIFDIAFPDEQAEALAVER
partner: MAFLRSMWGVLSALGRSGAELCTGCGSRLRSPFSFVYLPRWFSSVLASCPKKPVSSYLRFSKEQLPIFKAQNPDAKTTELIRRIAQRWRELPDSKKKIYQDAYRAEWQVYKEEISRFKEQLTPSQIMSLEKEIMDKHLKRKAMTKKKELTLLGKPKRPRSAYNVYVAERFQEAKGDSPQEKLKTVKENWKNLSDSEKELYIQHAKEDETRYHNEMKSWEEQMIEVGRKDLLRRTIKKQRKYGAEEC

The assay covers variants of B1. The note with it: with tfam_human TFAM.
As to P676S, the “effect of a mutation on the interaction” value was “with no effect”.

Consider R721G, for which the “effect of a mutation on the interaction” value is given as “with no effect”.
